These results are taken from the domain aggregation screens of Martell et al. (2025).
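Note: 20 min heating vs room temperature control held 20 min.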

The data set can be described thus: soluble fraction after stress (log2 fold change); higher = more stays soluble; pooled small domains, quantitative proteomics. Particulars: stress: 75 degC.
Turning to “HMLQARKFTHIQGYEFEAEFLRTNGEFVELQDPQGRKKWFPISNFIQDDKDFIKEQAGNLSS”, the “soluble fraction (log2)” value was -0.309. Under “HMLQEFTLELATAVVQEFRDQPGALINALHKLQETFGYVDEAAMPVLARLFNLSRAEVHGVASFYHDFRRS” stands -1.67; under “HMLQEHVLEIRHPSWNDAFRIIGHDGWRTQTGAHAAILSYDEEELNIKWDSWGYERFIRDEKGIFRLAA”, -0.11. On to “HMLQESDPEALRGIVKSVLVDHAAVAEEYRAGKQSVLQFLVGQGMKASKGAGNPGLIRDLMLEEL”, for which the “soluble fraction (log2)” value is -0.237. Under “HMLQLSDAISRVESFLQGQNRNLAFSIDENTERSVVTVLDSDTGDVIRQIPSEELLVLAKRIQELQQD” stands -0.0104; under “HMLQMSDSSALEAILDEVLGSEMGQKALSDIEAGNMKAMGFIIGQSMKLSKGQANPQIINKLLQQRLK”, -0.326.

Regarding “HMLQNLGFKPDLEIRHFPGIVLPDIHRSKKTISLLYTLLAGDIKKLPENEINYKDSKIISSYLWTLLRYH”, the “soluble fraction (log2)” value came to 0.103. To “HMLQSGSDYLIEQVRMYTATGQREYMDNYFEELNTTRRRENALEYFAEHYGDNDAFTLLKSAMTTSQN” belongs -0.258; to “HMLQVRRILQLLADGYSKRQISQQTAVSRNTIDSYEDRFHLTGKSYQELLSMEDGELSGIVYP”, -1.11; to “HMLQVSDENFVVELVQKVLLDNPSSVQEYKNGKESVLQFLIGQAMKASKGTANPQIVKEIMLKLL”, -0.68.

Consider “HMLQYSQEIEEAQKILQNLGLYKGEIDGINGVNTKSAIKEFQRKSGLIIDGILGPNTTSALSKGAESYITV”, for which the “soluble fraction (log2)” value came to 0.0721. Regarding “HMLRISEEVWALVEKTLREDWSPEQVSGKLKASGISVSHERIYQHIYADKRVGGTLWTHLRR”, the “soluble fraction (log2)” value is -2.47.

As for “HMLRLLEIIAGNEVSKEINSQVIKYYKALKNKKIEEINNLTPSYNKLIISFDLKKKNFREMKKIIEDISIN”, the “soluble fraction (log2)” value was -0.136.

For “HMLRPEEMIYHEMLDAILDRRLEPGMKLVEEDLAKTFGVSRARIRATFLQLAHDKLINLVPNRGAFVAEP”, the “soluble fraction (log2)” value was -2. For “HMLRRNQVQSQVIPRENGSYVVELQLRDDVDSILRLELTAATEAMARDLADRFRQDPEGVYTRLLSALY”, the “soluble fraction (log2)” value is -2.22.

With “HMLRTEYLTVNYAKASEVAELVTASGFLSSRGSITVDERTNTLLLQDTATNIDEVRFMLEQLD”, the “soluble fraction (log2)” value was -0.366. Take “HMLSADLLDKIQRIDSLEQQGKYAQAEKEARALLSDPSITPSERASVQNILSSIARKKAAQAQ”: the “soluble fraction (log2)” value is -0.064.

Consider “HMLSAGTTEQRLAMLQYQWEKQSETYSALGPNNGVVTLGQIRNTMAKIAELAGFKDAAQFWMPVPMDYDV”, for which the “soluble fraction (log2)” value was -0.217. To “HMLSAPMPGTVLEVHVKEGQRVREGQTLVVMEAMKMEHRVQAPRAGVVTKLHYSEGDRVDVGAILVEIG” belongs -1.34; to “HMLSAQEIPVEDIATRDFVLAEDVVSAKKVLLLPKGVDLSWFGSAKKRLVQRLKSEGVTHIRVFA”, -2.06. To “HMLSFSEAERAVLSLLNRRPDLSAKALASELAVSARTVERYLQSLQQKGKLLRVGAKKGGYWQV” belongs -0.842; to “HMLSGNLTADAHVHRGLQALSDGRNEDALVDFTKATEVQADFAEAWNKRATVNYLLGRYDAAVLDIQKTLE”, 0.257; to “HMLSLDDAAFERYDLTMREREVLLLLLNRLTYEEIAERLFISTNTVKTHVGNVYKKTGVSSRKELVSK”, -1.26. To “HMLSLGQQIRNHVLSRIESGEWPEGSRIPSEAKLVELLGASRMTIHIALRDLSAEGVLLRKQGAGTFVAPR” belongs -2.68; to “HMLSRKEVFTVSQKDIEKNPIGAADKFFDGHVGIHKLLVVDEEDRLRGLFTLSDIERINDEQ”, 0.179; to “HMLSRTYDSSGPDVKIRGTAQTVADKYMSLARDAQSSGDRVMAENYLQHAEHYNRIIAAAQAQ”, 0.34.

In the case of “HMLSSEQQQKLDSLSRKELEVAELVSHGATNKMIARTMNITERTVKAHLTAIFQKMNIPDRLSLAIFFRDL”, the “soluble fraction (log2)” value was -2.79. Under “HMLSSNEIKEIFALFDKSNRGQVATSELGTLVRALNLNPTETEITDMQSKVDPKGQGSFTLDVLEKVVQD” stands 0.394.

In the case of “HMLSVNREQVEQSLKQEWGFDYDKNLRAAQRAIDVYGDDDLKLLLNGPTGNDPAIVKLFARLGGEVTEE”, the “soluble fraction (log2)” value amounted to 0.132. Take “HMLSYIELTVDNTSKASYIMTDKMKINNFKIIGNNTIRVYENKVSPQDISRTLSMNNVSIEALGRKS”: the “soluble fraction (log2)” value is -1.29. With “HMLSYNINEESKSSIMNVNVLKNNFASIDVEKLQNIIFTTFKKYNYYLNDFSSMNLLLHLLIIVDREL”, the “soluble fraction (log2)” value worked out at 0.418. To “HMLTEKEEEVMQILWDNGPLFVREILEFYPDPKPHYNTVSTVIRVLEEKNFASHKAYGNTYQYFP” belongs 0.315.

As to “HMLTLEDMTRINSIISPRIKKGQSLYHIAKNNGDELNISESTLRRLVMTGEMDAGIIDLPQAVK”, the “soluble fraction (log2)” value was -0.00636.

With “HMLTLTNREKQVLVYIAKGHQVAQIAYELKLSGHTINGYIKTIYQKLHISSRAEAALLAQQYGL”, the “soluble fraction (log2)” value was -3.31. Under “HMLTRQNFHGIKLPTIHEYIDLLNSRVNANIDKTNNWQSSVSHLRTYLNSHNINAVSKESINNYIDERLN” stands -1.4. To “HMLTRRQSEVLDFIRQFAESESMPPTLHEIAKGMGFSSDNAARDHVRALARKGAIDLVGGTSRGIRLR” belongs -1.22. To “HMLTRSASREELDQLLKRLRQNLKQKNFFWPPDKEKSLVLYLENLFSKFPLNSSDIRFLHGIIRTLSEK” belongs -0.188; to “HMLVGKSVIMKTNESSSGMIAGKVNYWENIDGKIYLGINGKLYDIADVDTVLDNDYYDKLVN”, -0.516. Turning to “HMLVKKYTEEETGRQAELSKQLAELSKAYYNTGNSMVDDAVFDKLRDELSSLEKESGFAYDISPNVS”, the “soluble fraction (log2)” value was -0.69.

As to “HMLVNNSTIETVIDFANVKFGMELTKDQVSEQLRNLSFSQTLKLINSMKADDNDAFSEIIDL”, the “soluble fraction (log2)” value is -0.593. To “HMLVSFGDHLKRYIYERAGIEEPFGEVPQEIYRDIAVDSFRETYTPKSMNPTSTKLPALVNNWLIQ” belongs -0.843; to “HMLVSVSNYLGQNVDTVKSDLEALGLVVKLKEQQTDRESENGAVLEQSIEGGSKVSAGTPITLTYGK”, 0.945; to “HMLWTHIALPVRSLDDTMAFYDKYTTLENIHERQDPETNMRSVWLANPGDKTEQAARFVLVLI”, -0.119.

As to “HMMTDAEKTFIFFSHLSSVEDHIAYGDKQFYMSLFWQHENKRELSSSQLYHLERLYNKYSMEEIEKKEEFS”, the “soluble fraction (log2)” value is -1.35. Under “HMMTDEEFLRIAGYMKQRYGIDLGQKKVIMNGRLENHIKSGGWSSFHAFMNDLEKDSSGKLEKELVNLLTT” stands -0.239.

“HMMTLEESYKLLQVSHNASDIEITKAFKKLALLYHPDKNPSNIDWANKAMASINVAYNTIITHRFKEK”: the “soluble fraction (log2)” value is -1.38. Consider “HMNAAYDEELDFIFSLSEKGKWEEAEAEIGLLLQKHPEDATLQRIGEWVTTQKILLRQQAVEDRIRS”, for which the “soluble fraction (log2)” value was -0.375. To “HMNAEWMFDARKIPGLVMNYLRRIAVRAIEEKHYSPELVADLFGIDRTSIYDWLRKYRQQGEEALDTRKA” belongs -1.28; to “HMNAFEIYPNPASNLIRIDAEFTVAKIFSQTGNLIQTSTTKEIDVYNLANGIYFVKLDDSPSMVKFVIN”, -0.795. With “HMNALTEAESKLLERMNKAGIHAEITTKKAAGILQRSENGARTVLNSLVKKGYLTVETNKAPYIYHLH”, the “soluble fraction (log2)” value was -0.359. As to “HMNAMFEKVLAAVMGFIGVSAFAKNADGKSEMTSDQEKRLTDKWGSKFVEEFKNDLLEYEKNGNAAEDAV”, the “soluble fraction (log2)” value is -0.944.

“HMNAPKKPLSAYFLFSQEERLKVKAENPDYSITEVAKELGKRWATLNPDIKTVYEQRYQDARRIYETEMNT”: the “soluble fraction (log2)” value is -0.372. For the sequence “HMNAQLTTIPDLDGMNMRAATAMLSSLGLEVKRIGSGTVFAQFPKAGAAMRPGSMVTIRGKAKSL”, the “soluble fraction (log2)” value was -0.777. To “HMNATLSSSYPTSVVTDGEIYKLTFGLNGKYNGQEQITVKPHGDSNIYDSGGLRAYQNTQSNNVVTLN” belongs -0.0686. To “HMNATQLSNTQKQIRTQLLERLSNNPLTVKQLADRMFVPIDTILKEITALIQEQKIIEDKGGKLQIN” belongs -0.135.

As for “HMNAVDLLSPQEQRIFELIGEGMSNRQIADVMYLAEKTVKNYVSNVLMKLGMERRTEAAALAARLDERQK”, the “soluble fraction (log2)” value was -0.179. Take “HMNAVITTQKAKQIALAHAGLSEADVNYVKAELENDDGVQVYDIEFYSKNIEYDYDINAVTGEIMSFDHDI”: the “soluble fraction (log2)” value was -0.251. To “HMNAVYPNPFVSEIYIGENNRSVEIYNLNGGLVYGMSQPSSRIDVSGLAAGSYILIKKDSSGHISSHKIMK” belongs -1.63; to “HMNDAARQTTDILQHVRSSGSISFRDLWRLFMPFMAYRDFDAAVKSLVAAGHIATTENERKELHLIAF”, -1.14; to “HMNDEFYAVVRESYAGYALVKPLDEDVGYDILSVSVKNLKVGDIIRLKVKNIKEIYPPEAEVLEVEVLQ”, -0.316.

For the sequence “HMNDEQFAIAKNDLLLSLYDGKEVNNSAAEYIIAWESLEKSPSDYISSQLKNTAESIIKISFD”, the “soluble fraction (log2)” value stood at 0.258. To “HMNDFVTVPDLQGIFYSEAIKKIDKMGLKEGSIQFVNQDKFLPNTVLNQNPKEGTKVSQDSPINLIIS” belongs -0.012; to “HMNDILETISNQIRDLRVSKKITQQELAERTNLSVPYISQIENGHRNISLETFIKIVDALDIPLSDFFLP”, -1.95. To “HMNDITVNVEDSKLIVTSNNPEKLPLYIMDIQGHILDKSEITAGTYSFPISDRGTYIVRIGENVYKVI” belongs -0.166; to “HMNDLKVGELAKRGNVTAETVRHYTREGLLSPTRHPDNGYQLFSATDLERLHFIQRARKLGFSVAEIRDIL”, -0.915; to “HMNDLVTWDRYKIELGDTLSEIAQKLVTRVDILKTVNQIQGTRIIAGNSLMVPRTTDTNVLTYL”, 0.00348. To “HMNDPIGDMLTRIRNAQMRGKSTVSTPASKLRAWVLEVLASEGYIRGFERATTDNGQGELVISLD” belongs -0.682.

On to “HMNDREAAYEDLPDELVRVGQKVFIKSLETEGVIVQPPNKKGEVRVRSGNISTNVKRSDLGLPIEKP”, for which the “soluble fraction (log2)” value was found to be 0.0745.

Consider “HMNDRRQDVFELLKSSERPVSAADLAHKFGVTRQVIVADIALLRASDIDIVSTNRGYILKANL”, for which the “soluble fraction (log2)” value is -1.83. To “HMNDYNLTDREKEVLTFLFQGLEYKEIGMKMSVSPNTIRNHISNIYKKLHVTSKTQAIRVFLNN” belongs -4.09.
